From US8592178B2, “Process for the preparation of testosterone” (F.I.S. Fabbrica Italiana Sintetici S.p.A., priority 2009, dated 2013)
Converted amounts (≈) assume the structure as drawn. “And” between values parts separate entries of the source, which are not always exact repeats. Equal values may be shown once.

B1: 09/10/09: Preparation of the purified recombinant enzyme dated 09/10/09; induction 26 °C, 19 h (protein, UniProt P70694 1-323, looked up)
Estradiol 17 …: MDSKQQTVRLSDGHFIPILGFGTYAPQEVPKSKATEATKIAIDAGFRHIDSASMYQNEKEVGLAIRSKIADGTVKREDIFYTSKVWCTFHRPELVRVCLEQSLKQLQLDYVDLYLIHFPMAMKPGENYLPKDENGKLIYDAVDICDTWEAMEKCKDAGLAKSIGVSNFNRRQLEKILKKPGLKYKPVCNQVECHPYLNQGKLLDFCRSKDIVLVAYSALGSHREKQWVDQSSPVLLDNPVLGSMAKKYNRTPALIALRYQLQRGVVVLAKSFSEKRIKENMQVFEFQLTSEDMKVLDDLNKNIRYISGSSFKDHPDFPFWDEY
modifications: N-terminal His-tag
notes: Preparation of the purified recombinant enzyme dated 09/10/09; induction 26 °C, 19 h
B2: 22/04/09: Preparation of the purified recombinant enzyme dated 22/04/09; induction 37 °C, 21 h (protein, UniProt P70694 1-323, looked up)
Estradiol 17 …: MDSKQQTVRLSDGHFIPILGFGTYAPQEVPKSKATEATKIAIDAGFRHIDSASMYQNEKEVGLAIRSKIADGTVKREDIFYTSKVWCTFHRPELVRVCLEQSLKQLQLDYVDLYLIHFPMAMKPGENYLPKDENGKLIYDAVDICDTWEAMEKCKDAGLAKSIGVSNFNRRQLEKILKKPGLKYKPVCNQVECHPYLNQGKLLDFCRSKDIVLVAYSALGSHREKQWVDQSSPVLLDNPVLGSMAKKYNRTPALIALRYQLQRGVVVLAKSFSEKRIKENMQVFEFQLTSEDMKVLDDLNKNIRYISGSSFKDHPDFPFWDEY
modifications: N-terminal His-tag
notes: Preparation of the purified recombinant enzyme dated 22/04/09; induction 37 °C, 21 h
B3: 13/06/09: Preparation of the purified recombinant enzyme dated 13/06/09; induction 39 °C, 20 h (protein, UniProt P70694 1-323, looked up)
Estradiol 17 …: MDSKQQTVRLSDGHFIPILGFGTYAPQEVPKSKATEATKIAIDAGFRHIDSASMYQNEKEVGLAIRSKIADGTVKREDIFYTSKVWCTFHRPELVRVCLEQSLKQLQLDYVDLYLIHFPMAMKPGENYLPKDENGKLIYDAVDICDTWEAMEKCKDAGLAKSIGVSNFNRRQLEKILKKPGLKYKPVCNQVECHPYLNQGKLLDFCRSKDIVLVAYSALGSHREKQWVDQSSPVLLDNPVLGSMAKKYNRTPALIALRYQLQRGVVVLAKSFSEKRIKENMQVFEFQLTSEDMKVLDDLNKNIRYISGSSFKDHPDFPFWDEY
modifications: N-terminal His-tag
notes: Preparation of the purified recombinant enzyme dated 13/06/09; induction 39 °C, 20 h
B4: 02/07/09: Preparation of the purified recombinant enzyme dated 02/07/09; induction 28 °C, 24 h (protein, UniProt P70694 1-323, looked up)
Estradiol 17 …: MDSKQQTVRLSDGHFIPILGFGTYAPQEVPKSKATEATKIAIDAGFRHIDSASMYQNEKEVGLAIRSKIADGTVKREDIFYTSKVWCTFHRPELVRVCLEQSLKQLQLDYVDLYLIHFPMAMKPGENYLPKDENGKLIYDAVDICDTWEAMEKCKDAGLAKSIGVSNFNRRQLEKILKKPGLKYKPVCNQVECHPYLNQGKLLDFCRSKDIVLVAYSALGSHREKQWVDQSSPVLLDNPVLGSMAKKYNRTPALIALRYQLQRGVVVLAKSFSEKRIKENMQVFEFQLTSEDMKVLDDLNKNIRYISGSSFKDHPDFPFWDEY
modifications: N-terminal His-tag
notes: Preparation of the purified recombinant enzyme dated 02/07/09; induction 28 °C, 24 h
B5: 26/09/08: Preparation of the purified recombinant enzyme dated 26/09/08; induction 37 °C, 18 h (protein, UniProt P70694 1-323, looked up)
Estradiol 17 …: MDSKQQTVRLSDGHFIPILGFGTYAPQEVPKSKATEATKIAIDAGFRHIDSASMYQNEKEVGLAIRSKIADGTVKREDIFYTSKVWCTFHRPELVRVCLEQSLKQLQLDYVDLYLIHFPMAMKPGENYLPKDENGKLIYDAVDICDTWEAMEKCKDAGLAKSIGVSNFNRRQLEKILKKPGLKYKPVCNQVECHPYLNQGKLLDFCRSKDIVLVAYSALGSHREKQWVDQSSPVLLDNPVLGSMAKKYNRTPALIALRYQLQRGVVVLAKSFSEKRIKENMQVFEFQLTSEDMKVLDDLNKNIRYISGSSFKDHPDFPFWDEY
modifications: N-terminal His-tag
notes: Preparation of the purified recombinant enzyme dated 26/09/08; induction 37 °C, 18 h
B6: 25/03/09: Preparation of the purified recombinant enzyme dated 25/03/09; induction 37 °C, 15 h (protein, UniProt P70694 1-323, looked up)
Estradiol 17 …: MDSKQQTVRLSDGHFIPILGFGTYAPQEVPKSKATEATKIAIDAGFRHIDSASMYQNEKEVGLAIRSKIADGTVKREDIFYTSKVWCTFHRPELVRVCLEQSLKQLQLDYVDLYLIHFPMAMKPGENYLPKDENGKLIYDAVDICDTWEAMEKCKDAGLAKSIGVSNFNRRQLEKILKKPGLKYKPVCNQVECHPYLNQGKLLDFCRSKDIVLVAYSALGSHREKQWVDQSSPVLLDNPVLGSMAKKYNRTPALIALRYQLQRGVVVLAKSFSEKRIKENMQVFEFQLTSEDMKVLDDLNKNIRYISGSSFKDHPDFPFWDEY
modifications: N-terminal His-tag
notes: Preparation of the purified recombinant enzyme dated 25/03/09; induction 37 °C, 15 h
B7: recombinant murine type V 17β-hydroxysteroid dehydrogenase enzyme: Purified recombinant murine type V 17β-hydroxysteroid dehydrogenase with N-terminal His-tag tail, SEQ ID n. 2, expressed in E. coli (protein)
chain: MGSSHHHHHHSSGLVPRGSHMDSKQQTVRLSDGHFIPILGFGTYAPQEVPKSKATEATKIAIDAGFRHIDSASMYQNEKEVGLAIRSKIADGTVKREDIFYTSKVWCTFHRPELVRVCLEQSLKQLQLDYVDLYLIHFPMAMKPGENYLPKDENGKLIYDAVDICDTWEAMEKCKDAGLAKSIGVSNFNRRQLEKILKKPGLKYKPVCNQVECHPYLNQGKLLDFCRSKDIVLVAYSALGSHREKQWVDQSSPVLLDNPVLGSMAKKYNRTPALIALRYQLQRGVVVLAKSFSEKRIKENMQVFEFQLTSEDMKVLDDLNKNIRYISGSSFKDHPDFPFWDEY
modifications: N-terminal His-tag; modified 17-beta-deidrogenase
notes: 2, expressed in E. coli

Tests used:
[1] = Solubility of 4-androstene-3,17-dione (saturated solution); type: physicochemical
Description: • 5 mg of 4-androstene-3,17-dione in • 5 mL of buffer solution (phosphate buffer 50 mM; pH 6.5). This was stirred at 40° C. for 15 minutes and the suspended matter was filtered thereby obtaining a saturated solution of 4-androstene-3,17-dione (conc. 50 μg/mL). Solution I (NAD Solution) • 10 mg of NAD in • 1 mL of buffer solution. A clear solution was obtained. Solution L ([…]) • 13 mg of GDH-103 (glucose dehydrogenase) in • 1 mL of buffer solution. A clear solution was obtained.
Advantageously, the enzyme of the present invention is capable of carrying out the catalysis also in water-organic solvent mixtures, such as methanol, ethanol, isopropanol in percentages as high as 50%. This mixtures allow increasing the substrate solubility, which is as low as about 50 μg/mL in water.

[2] = Activity test of the recombinant murine type V 17β-hydroxysteroid dehydrogenase enzyme (NADPH consumption at 340 nm); type: biochemical; conditions: for U/mg: each enzyme preparation; for U/mg / U/ml: preparation parameters (induction temp., time) differ per date of preparation; for U/ml: eluate of each enzyme preparation
Description: To estimate the specific enzymatic activity of the purified protein, a kinetic study was carried out by means of a spectrophotometer. The conversion of 4-androstene-3,17-dione into testosterone by means of the recombinant murine type V 17β-hydroxysteroid dehydrogenase enzyme involved the equimolar consumption of the NADPH cofactor, which acted as the reducing agent.
As the transformation of the 4-androstene-3,17-dione into testosterone is equimolar to the oxidation of NADPH, by quantifying the consumption of the latter over time as a function of the enzyme milligrams used, the activity units can be estimated, which are intended as substrate micromoles converted per minute per protein milligram (U/mg).
A fresh saturated NADPH solution in phosphate buffer 100 mM at about pH 7 (SOLUTION Q) and a fresh saturated solution of 4-androstene-3,17-dione in phosphate buffer 100 mM at pH 7 (SOLUTION P) were prepared. In a quartz 100 μl cuvette, 1 cm optical path, 96 μl SOLUTION P, 4 μl phosphate buffer 100 mM at pH 7 were added. The blank was measured at 340 nm. The absorbance values at 340 nm were detected every second. In a quartz 100 μl cuvette 96 μl SOLUTION P, 2 μl SOLUTION Q and finally, 2 μl protein elution quantified by Bradford assay were inserted. The solution was blended thoroughly, then the wavelength reading was started at 340 nm and the values thereof were recorded. In a plot, the absorbance values were inserted, which were obtained as a function of time and the curve was interpolated. The highest derivate value within the early seconds of measurement was thus defined.
With the values obtained, the plot illustrated in FIG. 5 was drawn, which allows to quantify the NADPH consumption rate at time zero (except the self-oxidation given by the control, consisting of the mixture without enzyme, which must be subtracted) and from the latter the enzyme activity units per protein milligram (U/mg). To calculate the units, the following Formula was used: Unit/mg=|derivate (s^−1)|*60 (sec/min)*1 (cm)/6220 (M^−1Cm^−1)*1000000 (M/M)*[…]/[(mg/mL sol enzyme*0.002 (mL))]=(μmol/min)/mg
A study to optimize the process for the preparation of the purified recombinant murine enzyme Type V 17β-hydroxysteroid dehydrogenase was carried out. […] It can be seen that the highest activity of the enzyme is reached performing the incubation (protein expression) at a temperature lower than 30° C., particularly preferred is the range between 20° C. and 30° C. The incubation temperature is a key parameter for the preparation of the enzyme.

[3] = Stability study of the enzyme (activity as a function of time at room temperature); type: physicochemical; conditions: in the elution solution (SOLUTION G) at room temperature
Description: A study to verify the stability in water of the purified recombinant murine enzyme Type V 17β-hydroxysteroid dehydrogenase of the invention was carried out. […] It can be seen that the enzyme is sufficiently stable to allow industrial biocatalysis as it is still active even after 15 days (Half-life).

| Molecule | U/mg [2] [U/mg] | U/ml [2] [U/ml] | also measured |
| --- | --- | --- | --- |
| C[C@]12CCC(=O)C=C1CC[C@@H]1[C@@H]2CC[C@]2(C)C(=O)CC[C@@H]12 [4-androstene-3,17-dione] |  |  | solubility ([1]; in water): ~50 µg/mL (≈ 175 µM); concentration of saturated solution ([1]; phosphate buffer 50 mM pH 6.5, stirred at 40° C. for 15 minutes, filtered): 50 µg/mL |
| B1 | 0.0133 | 0.65 |  |
| B2 | 0.0057 | 0.1470 |  |
| B3 | 0.00393 | 0.0566 |  |
| B4 | 0.027 | 0.29 |  |
| B5 | 0.00725 | 0.2247 |  |
| B6 | 0.0149 | 0.4955 |  |
| B7 |  |  | half-life [3]: more than 15 days; specific enzymatic activity (substrate micromoles converted per minute per protein milligram) ([2]; two different preparations, NADPH cofactor, phosphate buffer 100 mM pH 7): 0.006 U/mg and 0.007 U/mg |
